Data: patent publication US20260242478A1 (published 2026)
Where no end group is shown, it is not given here.

What was measured:
[1] = target: T1, PSMA Fab; assay: clonal phage ELISA on biotinylated PSMA Fab captured on neutravidin plates, anti-M13 HRP detection;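 also: crude clonal phage supernatants tested, before phage were added, wells were pretreated with PSMA antigen in blocking buffer or with blocking buffer only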
T1 construct: Biotinylated PSMA Fab captured on neutravidin coated plates in the phage ELISA; also called Anti-PSMA Fab; 006 PSMA Fab
Procedure: (§1) Clonal phage were harvested as crude supernatants and screened via standard ELISAs. […] Prior to the addition of clonal phage. wells were incubated with blocking buffer and PSMA antigen or blocking buffer alone. Without washing or aspirating, clonal phage supernatants were then added to the wells and incubated for a short time. Wells were then washed followed by detection of bound phage using a horse radish conjugated anti-M13 antibody.

[2] = target: T1, PSMA Fab; assay: clonal phage ELISA on captured PSMA Fab pre-incubated with PSMA antigen as competitor, anti-M13 HRP detection;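 also: crude clonal phage supernatants tested by ELISA, wells first treated with blocking buffer plus PSMA antigen, bound phage read out via HRP-linked anti-M13 antibody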
Procedure: as §1

[3] = target: T2, PSMA Fab (biotinylated (site not stated)); assay: phage ELISA, biotinylated PSMA Fab on neutravidin plate, anti-M13-HRP detection, competitor PSMA antigen pre-incubated
T2 construct: Biotinylated PSMA Fab captured on neutravidin plates in the phage ELISA; also called Anti-PSMA Fab; 006 PSMA Fab

[4] = target: T2, PSMA Fab; assay: phage ELISA, biotinylated PSMA Fab on neutravidin plate, anti-M13-HRP detection, blocking buffer alone
Procedure: as §1

[5] = target: T3, PSMA Fab (006 PSMA Fab); assay: clonal phage ELISA on biotinylated PSMA Fab captured on neutravidin plates, anti-M13 HRP detection;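 also: crude clonal phage supernatants tested, before phage were added, wells were pretreated with PSMA antigen in blocking buffer or with blocking buffer only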
T3 construct: also called Anti-PSMA Fab; anti-PSMA Fab
Procedure: as §1

[6] = target: T3, PSMA Fab (006 PSMA Fab); assay: clonal phage ELISA on captured PSMA Fab, wells pre-incubated with PSMA antigen as competitor, anti-M13 HRP detection;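 also: crude clonal phage supernatants added, with no intervening wash, to wells preincubated with PSMA antigen in blocking buffer, incubated briefly, then washed before detecting bound phage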
Procedure: as §1

[7] = target: T4, PSMA Fab (biotinylated (site not stated)); assay: clonal phage ELISA on biotinylated PSMA Fab captured on neutravidin plates, anti-M13 HRP detection;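 also: crude clonal phage supernatants tested, before phage were added, wells were pretreated with PSMA antigen in blocking buffer or with blocking buffer only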
T4 construct: also called Anti-PSMA Fab; 006 PSMA Fab

[8] = target: T4, PSMA Fab; assay: clonal phage ELISA on captured biotinylated PSMA Fab; competitor: PSMA antigen at saturating concentration
Procedure: as §1

Binder	Phage binding ELISA signal, Anti-PSMA Fab [1]	phage binding ELISA signal (Anti-PSMA Fab, PSMA antigen present) [2]	Phage binding ELISA signal, Anti-PSMA Fab [5]	Phage binding ELISA signal, Anti-PSMA Fab with PSMA antigen [6]	other results
GWNWCVPQWMCTTS [Phage-2781]	0.623	0.121	–	–	–
GSNWCKPAWMCSVA [Phage-2777]	0.634	0.0623	–	–	–
DMKLCRPAWMCMHN [Phage-2784]	0.621	0.0536	–	–	–
APHLCIPKWMCNPS [Phage-2664]	–	–	–	–	Phage binding ELISA signal, Anti-PSMA Fab with PSMA antigen [3]: 0.105; Phage binding ELISA signal, Anti-PSMA Fab [4]: 0.899
EENWCIPVWMCERL [Phage-2786]	0.607	0.0721	–	–	–
AIKWCIPAWMCAQA (cysteine pairing not given here; also: displayed on phage as pIII fusion) [Phage-2656]	–	–	–	–	Phage binding ELISA signal, Anti-PSMA Fab with PSMA antigen [3]: 0.0786; Phage binding ELISA signal, Anti-PSMA Fab [4]: 0.92
EFKWCIPMWMCQAN [Phage-2665]	–	–	–	–	Phage binding ELISA signal, Anti-PSMA Fab with PSMA antigen [3]: 0.0753; Phage binding ELISA signal, Anti-PSMA Fab [4]: 0.896
DQNWCIPHWMCVGI [Phage-2779]	0.625	0.0883	–	–	–
DVKWCKPRWMCNRD [Phage-2750]	–	–	0.695	0.0701	–
VHKMCTPPWMCVTQ [Phage-2783]	0.621	0.0908	–	–	–
VVKWCTPAWMCSLN [Phage-2663]	–	–	–	–	Phage binding ELISA signal, Anti-PSMA Fab with PSMA antigen [3]: 0.0846; Phage binding ELISA signal, Anti-PSMA Fab [4]: 0.902
SEKWCTPAWMCGDM [Phage-2747]	–	–	0.7	0.0842	–
DLKWCVPTWMCNWS [Phage-2775]	0.639	0.0692	–	–	–
VPKWCTPSWMCASN (cysteine pairing not given here; also: fused to pIII, displayed on bacteriophage) [Phage-2773]	0.643	0.0608	–	–	–
MSKWCVPTWMCQWQ [Phage-2741]	–	–	0.711	0.0979	–
APKWCTPSWMCQQV [Phage-2661]	–	–	–	–	Phage binding ELISA signal, Anti-PSMA Fab with PSMA antigen [3]: 0.121; Phage binding ELISA signal, Anti-PSMA Fab [4]: 0.908
LWKSCTPEWMCAEW (cysteine pairing not given here; also: fused to pIII, displayed on bacteriophage) [Phage-2787]	–	–	–	–	Phage binding ELISA signal, Anti-PSMA Fab [7]: 0.606; phage binding ELISA signal (Anti-PSMA Fab, wells pre-incubated with PSMA antigen) [8]: 0.0991
MPKWCTPQWMCEMY [Phage-2658]	–	–	–	–	Phage binding ELISA signal, Anti-PSMA Fab with PSMA antigen [3]: 0.0641; Phage binding ELISA signal, Anti-PSMA Fab [4]: 0.92
APQWCIPPWMCHDQ [Phage-2754]	–	–	0.691	0.0708	–
DVKWCTPPWMCLSD [Phage-2785]	0.613	0.1	–	–	–
FDKWCTPPWMCKVF [Phage-2744]	–	–	0.708	0.143	–
VQAWCVPQWMCNQF [Phage-2772]	0.646	0.0631	–	–	–

Binder	Phage binding ELISA signal, Anti-PSMA Fab [1]	phage binding ELISA signal (Anti-PSMA Fab, PSMA antigen present) [2]	Phage binding ELISA signal, Anti-PSMA Fab [5]	Phage binding ELISA signal, Anti-PSMA Fab with PSMA antigen [6]	other results
VEKWCRPSWMCQQV [Phage-2660]	–	–	–	–	Phage binding ELISA signal, Anti-PSMA Fab with PSMA antigen [3]: 0.09; Phage binding ELISA signal, Anti-PSMA Fab [4]: 0.914
GNLWCSPPWMCFGM [Phage-2749]	–	–	0.696	0.0732	–
DWKWCIPAWMCSQD [Phage-2748]	–	–	0.697	0.0645	–
VVKMCKPLWMCGIS [Phage-2746]	–	–	0.701	0.0564	–
DIKRCTPAWMCSWM [Phage-2742]	–	–	0.709	0.0807	–
SMKMCTPPWMCEFA [Phage-2774]	0.641	0.0631	–	–	–
DPKWCTPSWMCDWR [Phage-2755]	–	–	0.69	0.0821	–
ANHWCIPSWMCTEV [Phage-2753]	–	–	0.692	0.162	–
GPKWCTPTWMCEFS [Phage-2776]	0.638	0.0754	–	–	–
TNKLCIPTWMCSGF [Phage-2745]	–	–	0.703	0.0715	–
VLNWCTPPWMCSGI [Phage-2780]	0.624	0.0732	–	–	–
QDKMCRPDWMCMNQ [Phage-2782]	0.621	0.0706	–	–	–
QDKWCTPTWMCEGL [Phage-2778]	0.631	0.0777	–	–	–
ETSWCRPTWMCEGM [Phage-2752]	–	–	0.693	0.0587	–
EDIWCIPSWMCGVI [Phage-2751]	–	–	0.694	0.0663	–
GEHWCTPAWMCSVM [Phage-2659]	–	–	–	–	Phage binding ELISA signal, Anti-PSMA Fab with PSMA antigen [3]: 0.68; Phage binding ELISA signal, Anti-PSMA Fab [4]: 0.919
IMKWCTPTWMCEMG [Phage-2743]	–	–	0.708	0.122	–
GNSWCTPQWMCTGF [Phage-2740]	–	–	0.712	0.0596	–
QMHWCMPPWMCEGI (cysteine pairing not given here; also: fused to pIII, displayed on bacteriophage) [Phage-2771]	0.65	0.0705	–	–	–
LQKWCIPAWMCSST [Phage-2657]	–	–	–	–	Phage binding ELISA signal, Anti-PSMA Fab with PSMA antigen [3]: 0.0717; Phage binding ELISA signal, Anti-PSMA Fab [4]: 0.92
DYKWCTPPWMCLVD [Phage-2662]	–	–	–	–	Phage binding ELISA signal, Anti-PSMA Fab with PSMA antigen [3]: 0.083; Phage binding ELISA signal, Anti-PSMA Fab [4]: 0.904
